# Measured values: patent US8808698B2, “Methods for inhibition of lymphangiogenesis and tumor metastasis” (The Regents of the University of California, priority 2006, dated 2014)
# “Also recorded” adds a separate entry of the source.
# Key:
# lymphatic vessels = test: Murine lymphangiogenesis and angiogenesis assay in growth factor MATRIGEL plugs; assay type: in vivo; conditions: mice, 400 ng growth factor
# Procedure: (§1) Lymphangiogenesis and angiogenesis assays in MATRIGEL were performed as described (Eliceiri et al, 1999, Mol. Cell 4:915) by injecting subcutaneously into wild-type C57B1/6 mice (n=5) 400 μL of cold MATRIGEL containing 400 ng of bFGF, VEGF-A, or VEGF-C (R&D Systems, Minneapolis, Minn.). Mice were then injected twice at day1 and day3 with 200 μl of blocking anti-α4β1 (PS2) or anti-α5β1 (5H10) antibodies, or isotype control antibody. After 7 days, MATRIGEL plugs were removed, embedded in OCT, frozen and sectioned. Thin sections (5 μm) were immunostained with anti-CD31 antibodies.
# For quantification, vessel numbers, tumor foci or pixel number in 10 microscopic fields per cryosection (per animal) were quantified and the mean number of vessels+/−s.e.m. for the entire treatment group was determined.
# RFP-LLC cells = test: Experimental footpad injection metastasis study (RFP-LLC); assay type: in vivo, mice
# Procedure: Inguinal lymph node lymphangiogenesis was stimulated by injecting mice intradermally above the left inguinal lymph node with 50 μl of saline or VEGF-C (200 ng per mice) every day for 7 days. Mice were inoculated with 10^6 RFP-LLC cells in a volume of 150 μl in the left footpad. Twenty four hours later, mice were sacrificed. Inguinal, brachial and mesenteric lymph nodes were removed and embedded in OCT for cryosectioning and immunofluorescence. RFP-tumor cell and Lyve-1+pixels were quantified on 5 different sections per lymph node.
# Lewis lung carcinoma = test: Local VEGF-C stimulation of lymph nodes in LLC tumor-bearing mice; assay type: in vivo
# Procedure: (§2) C57BL/6 mice were injected subcutaneously with 350 μl of ice-cold saline or VEGF-C-containing Matrigel (1 μg/ml) proximal to the inguinal lymph node. In parallel, 5×10^5 LLC cells were injected dorsally near the inguinal or brachial lymph nodes. Mice were sacrificed after 1, 7 and 14 days. Mice with stimulated inguinal nodes were also sacrificed after 21 days. Inguinal, brachial and mesenteric lymph nodes were removed and embedded in OCT for cryosectioning and immunohistochemistry.
# lymph nodes [1] = test: Systemic or local VEGF-C injections in normal mice, lymph node lymphangiogenesis; assay type: in vivo
# lymph nodes [2] = test: Lymph node lymphangiogenesis proximal to implanted VEGF-C MATRIGEL; assay type: in vivo, mice
# Procedure: as §1, §2
# LLC cells = test: Transwell migration of LLC cells; assay type: cell-based, murine; conditions: 10, 100 or 500 ng/ml
# Procedure: FIG. 29. Analysis of LLC cell expression of integrin α4 and VEGF-R3. A) Expression of VEGF-R3, integrins α5β1 and α4β1 (black lines) on LLC cells was evaluated by flow cytometry. Grey lines depict binding of isotype matched control IgG. While 100% of cells express integrin α5β1, none express α4β1 or VEGF-R3. B) Transwell migration of LLC cells in the presence or absence of serum or VEGF-C at 10, 100 or 500 ng/ml.
Molecule,invasion of growth factor saturated MATRIGEL by new lymphatic vessels (lymphatic vessels),"tumor cell retention in the stimulated inguinal lymph node (RFP-LLC cells; RFP-LLC into footpad, 24 h)","tumor cell retention in unstimulated brachial or mesenteric lymph nodes (RFP-LLC cells; RFP-LLC into footpad, 24 h)","lymphangiogenesis in stimulated inguinal lymph node (RFP-LLC cells; intradermal injections for 7 days, non-tumor bearing mice, versus saline)","lymphatic vessel density in draining (inguinal) lymph node (Lewis lung carcinoma; local injection, versus saline)",lymphangiogenesis and metastasis to other lymph nodes (Lewis lung carcinoma; local stimulation of inguinal node),"primary tumor growth (tumor volume) (Lewis lung carcinoma; local stimulation of inguinal node, after 21 days)","time at which tumor metastases were induced (Lewis lung carcinoma; local stimulation of inguinal node, 21 days for saline treated animals) [days]",lymphangiogenesis in stimulated distant (brachial) lymph node (Lewis lung carcinoma; stimulation of brachial node),metastasis to stimulated distant (brachial) lymph node (Lewis lung carcinoma; stimulation of brachial node),rate of lymphangiogenesis or metastasis to inguinal or mesenteric nodes (Lewis lung carcinoma; stimulation of brachial node),"lymph node lymphangiogenesis after local injections proximal to a single lymph node (lymph nodes [1]; normal mice, local)","lymph node lymphangiogenesis after systemic injections (lymph nodes [1]; normal mice, systemic)",blood vessels within lymph nodes (CD31+ pixels/field) (lymph nodes [1]; versus saline),lymph node lymphatic vessel density / lymphangiogenesis (lymph nodes [2]; VEGF-C stimulated lymph nodes),lymph node size (lymph nodes [2]; lymph nodes proximal to implanted MATRIGEL containing VEGF-C),LLC cell migration in response to growth factor (LLC cells)
bFGF: angiogenic growth factor (R&D Systems) [reference compound],new lymphatic vessels invade,–,–,–,–,–,–,–,–,–,–,–,–,–,–,–,–
"VEGF-C: lymphangiogenesis-promoting growth factor (R&D Systems) used as stimulus (protein, UniProt P49767 112-227, looked up) Vascular endothelial growth …: AHYNTEILKSIDNEWRKTQCMPREVCIDVGKEFGVATNTFFKPPCVSVYRCGGCCNSEGLQCMNTSTSYLSKTLFEITVPLSQGPKPVTISFANHTSCRCMSKLDVYRQVHSIIRR",new lymphatic vessels invade,strongly enhanced,not and No statistical difference,significantly induced,significantly increased,no effect,no effect; also recorded: No statistical difference,≤ 14,selectively enhanced,accelerated metastasis by one week,without affecting,specifically affected this and not other nodes,Widespread lymph node lymphangiogenesis,no significant effect; also recorded: No statistical difference,significant increase,expanded dramatically in size,do not migrate
